# Data taken from patent publication US5861254.
# Tests used:
# [1] = target: T1, L-selectin-IgG1 Fc fusion (LS-Rg) (Homo sapiens) (UniProt P14151); assay: SPR; details: 2'-F pyrimidines, 2'-OH purines, SHMCK buffer with Ca and Mg
# T1 sequence: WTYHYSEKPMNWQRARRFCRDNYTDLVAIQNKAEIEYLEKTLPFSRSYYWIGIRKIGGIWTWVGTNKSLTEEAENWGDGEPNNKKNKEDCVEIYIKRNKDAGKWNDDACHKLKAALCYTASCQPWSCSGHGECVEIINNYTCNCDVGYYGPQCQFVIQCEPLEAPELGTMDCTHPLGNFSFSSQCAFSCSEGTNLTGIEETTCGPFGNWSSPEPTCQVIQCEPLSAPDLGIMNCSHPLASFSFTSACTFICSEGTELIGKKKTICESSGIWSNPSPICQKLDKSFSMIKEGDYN
# [2] = target: T1, L-selectin-IgG1 Fc fusion (LS-Rg) (Homo sapiens); assay: filter; details: 2'-F pyrimidines, 2'-OH purines
sequence,measurement,setting,value
UCGGGCGGAAUUCAGGNNNNNNNNNNNNNNNNNNNNNNNNNNNNNNCCGCAUCGUCCUCCC [Flow Cell SELEX Rnd 4 pool],Kd,"[1]; ka 7.5e4, kd 1.8e-3",24 nM
UCGGGCGGAAUUCAGGNNNNNNNNNNNNNNNNNNNNNNNNNNNNNNCCGCAUCGUCCUCCC [Flow Cell SELEX Rnd 2 pool],Kd,"[1]; ka 1.7e4, kd 1.8e-3",110 nM
UCGGGCGGAAUUCAGGNNNNNNNNNNNNNNNNNNNNNNNNNNNNNNCCGCAUCGUCCUCCC [Flow Cell SELEX Rnd 3 pool],Kd,"[1]; ka 4.9e4, kd 1.9e-3",39 nM
same,Kd,"[2]; nitrocellulose filter binding, pool plateau below 20% bound in final mixtures",0.16 nM
UCGGGCGGAAUUCAGGNNNNNNNNNNNNNNNNNNNNNNNNNNNNNNCCGCAUCGUCCUCCC [Flow Cell SELEX Rnd 5 pool],Kd,"[1]; ka 3.7e5, kd 1.5e-3",4.1 nM
same,Kd,"[2]; only slightly improved over round 3 (160 pM), plateau below 20% bound",< 1 nM
